One block for each compound: values may come before it.
Tests used:
[1] = molecular target: his-Dpa (A. baumannii diaminopropane acetyltransferase Dpa, wild type) (Acinetobacter baumannii); assay: crystal structure; his-Dpa at 10 mg/ml crystallised with 0.1 mM acetyl-CoA; 0.2 M sodium acetate, 0.1 M Tris-HCl pH 8.5, 30% PEG 4000, 20 °C
[2] = molecular target: his-Dpa (A. baumannii diaminopropane acetyltransferase Dpa, wild type) (Acinetobacter baumannii); assay: SEC; analytic SEC on Superdex75 increase, 50 mM Tris-HCl pH 8, 250 mM NaCl; 500 μL of 20 μM protein injected; where indicated pre-incubated with 5-fold molar excess of acCoA and/or 1,3-DAP
SpeG = molecular target: T1, SpeG (Escherichia coli, UniProt P0A951); assay: DTNB acetylation assay; type: biochemical; settings: acetyl-CoA co-substrate 0.5 mM; substrate 5 mM; pH 8.0; 30 °C
T1 construct: his-tagged SpeG from pKK223.3, expressed in E. coli DJ624 delta-ara
T1 sequence (P0A951 2-186): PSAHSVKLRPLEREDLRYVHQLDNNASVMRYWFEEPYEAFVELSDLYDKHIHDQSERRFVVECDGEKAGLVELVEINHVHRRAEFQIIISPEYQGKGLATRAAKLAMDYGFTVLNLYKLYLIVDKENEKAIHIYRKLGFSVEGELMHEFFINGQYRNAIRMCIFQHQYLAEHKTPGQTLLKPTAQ

[3] = molecular target: his-Dpa_(Y128F) (catalytically impaired Dpa) (Acinetobacter baumannii); assay: crystal structure
Dpa = molecular target: T2, Dpa (Acinetobacter baumannii, UniProt V5VBK4); assay: X-ray crystal structure; type: binding; settings: crystallised with 0.1 mM acetyl-CoA, pH 8.5
T2 construct: gene ABR2091_2278; his-tagged Dpa from pKK223.3, expressed in E. coli DJ624 delta-ara; C-terminal beta-strand swapped dimer

stoichiometry N [1]: 2
stoichiometry N [2]: 2
Compound: his-Dpa (A. baumannii diaminopropane acetyltransferase Dpa, wild type) (enzyme)

Compound: NCCCCNCCCN [spermidine]
DTNB acetylation assay (SpeG): SpeG acetylated the long polyamines Spermine and Spermidine

Compound: his-Dpa_(Y128F) (catalytically impaired Dpa) (enzyme)
stoichiometry N [3]: 2

Compound: NCCCNCCCCNCCCN [spermine]
DTNB acetylation assay (SpeG): SpeG acetylated the long polyamines Spermine and Spermidine

Compound: CC(=O)SCCNC(=O)CCNC(=O)[C@H](O)C(C)(C)COP(=O)(O)OP(=O)(O)OC[C@H]1O[C@@H](n2cnc3c(N)ncnc32)[C@H](O)[C@@H]1OP(=O)(O)O [acetyl-CoA]
X-ray crystal structure (Dpa): we determined the structure of Dpa bound to acCoA

Source: article PMC10267138, “A polyamine acetyltransferase regulates the motility and biofilm formation of Acinetobacter baumannii” (Nature Communications, 2023)
